Experimental data as given in patent US20250154215A1, “PHARMACEUTICAL COMPOSITION FOR TREATING COLITIS OR COLORECTAL CANCER COMPRISING COLON-TARGETED S100A8/A9-DERIVED SPECIFIC PEPTIDE” (Industry-University Cooperation Foundation Hanyang …, priority 2023, published 2025).

Experiments:
BMDMs = format: cell-based, mouse
Procedure: FIGS. 5A and 5B show the drug-like properties of rCT-S100A8/A9. […] Bacteria-purified 6×His-rCT-S100A8/9, rVehicle or rCT was analyzed by Coomassie staining or IB using αHis (bottom, left). BMDMs were incubated with rVehicle, rCT, or rCT-S100A8/9 for the indicated times and at the indicated concentrations, and then cell viability was measured by MTT assay (bottom, right). […] HLM, human liver microsomes; CYP, cytochrome […], arrival time; AUClast, total area under the plasma concentration-time curve from time 0 to the time of the last measurement; Cmax, maximum plasma concentration;

[1] = format: in vitro ADME; conditions: human, microsomes, 0.5 h
Procedure: 0.1 M phosphate buffer (pH 7.4) and S100A8/A9 peptide ([…]) or rCT-S100A8/A9 protein (10 μg/mL) were added to human liver microsomes (0.5 mg/mL). After incubation at 37° C. for five minutes, the NADPH-generating system solution was also added and incubated again at 37° C. for 30 minutes. To terminate the reaction, acetonitrile containing an internal standard (clopramide) was added, and the resulting mixture was centrifuged for five minutes (14,000 rpm, 4° C.). The supernatant was then injected into an LC-MS/MS system to analyze the microsomal stability of the tested substances.

[2] = Colon targeting of Cy5.5-conjugated protein in DSS-induced acute colitis mice (FACS); conditions: mouse, in vivo, ip
Procedure: (§1) FIGS. 6A-6D show the effect of rCT-S100A8/A9 peptide on colon targeting. […] Mice were exposed to 3% DSS for six days and evaluated on day 6 (left). For IB with αITGA6, αITGB1, or αActin, multiple organ harvests were used and ITGA6+ or ITGB1+ cell numbers were analyzed through FACS. […] Intraperitoneal administration of rCT-S100A8/9 conjugated with Cy5.5 for one hour and colon harvest. Colon harvests were used for IB including αITGA6, αITGB1, or αActin and ITGA6+ or ITGB1+ cell numbers were analyzed through FACS. […] Mice were treated with 3% DSS for six days and administered 1, 2, or 3 doses of Texas Red conjugated with rCT-S100A8/9. Colons were harvested in a time-dependent manner and analyzed for Texas Red+ cell numbers through FACS. Data is representative of three independent experiments with similar results. Data is shown as the mean±SD of three experiments;
Fourth, to further investigate the physiological significance of rCT-S100A8/A9 in inflammatory colitis, a DSS-induced colitis mouse model was used (FIG. 6). […] Next, to evaluate the specificity of rCT-S100A8/A9, ITGA6- or ITGB1-knockdown mice were generated by sh-lentivirus transduction. […] Finally, the pharmacodynamics of rCT-S100A8/A9 were evaluated, and according to the FACS analysis, 50% of the rCT-S100A8/A9 was retained in the colon when administered for three consecutive days to the mice with DSS-induced acute colitis (FIG. 6D).

[3] = parameters: species or system mice; conditions: mouse, in vivo
Procedure: as §1
S100A8 or S100A9 peptides or rCT-S100A8/9 was conjugated to Texas Red using the Texas Red® Conjugation Kit (Fast)-Lightning-Link (Abcam) to quantitatively measure cellular uptake in macrophages and pharmacodynamics in a colitis model. Cells were washed thoroughly and quickly with pulse spins and immediately acquired for analysis on FACSCalibur (BD Biosciences, San Jose, CA, USA). Data was plotted using CellQuest software (BD Biosciences) and analyzed using FlowJo software (Tree Star, Ashland, OR, USA). […]

[4] = tested on: OxaR CRC cells (HT29, HCT116 and SW480); experiment: WST-8-based cell viability assay in parental and drug-resistant CRC cell lines
From the text: To establish a CRC cell model resistant to oxaliplatin, doxorubicin, or 5-FU, HT29, HT116, and SW480 cells were exposed to progressively increasing concentrations of oxaliplatin, doxorubicin, or 5-FU. The established oxaliplatin, doxorubicin, and 5-FU resistant cells were named OxaR, DoxR, and 5-FuR cells, respectively.
To confirm the inhibitory effect of rCT-S100A8/A9 on oxaliplatin resistance, the present inventors performed a water-soluble tetrazolium-8 (WST-8)-based cell viability assay using parental cells of three CRC cell lines, HT29, HCT-116 and SW480, and their corresponding oxaliplatin-resistant (OxaR) cell lines. OxaR CRC cells (HT29, HCT116 and SW480) were established by long-term exposure of CRC cells to oxaliplatin as described in Example 1.

B1: TWYKIAFQRNRKTWYKIAFQRNRKTWYKIAFQRNRKTWYKIAFQRNRKTWYKIAFQRNRKGGFLVIKGGAHKSHKGGITIITFGGGHHGGFLVIKGGAHKSHKGGITIITFGGGHHGGFLVIKGGAHKSHKGGITIITFGGGHHGG (protein)
chain: TWYKIAFQRNRKTWYKIAFQRNRKTWYKIAFQRNRKTWYKIAFQRNRKTWYKIAFQRNRKGGFLVIKGGAHKSHKGGITIITFGGGHHGGFLVIKGGAHKSHKGGITIITFGGGHHGGFLVIKGGAHKSHKGGITIITFGGGHHGG
modifications: N-terminal 6xHis tag
BMDMs
  cell viability: no significant effect on cell viability
[1]
  microsomal stability, remaining: 92%
[2]
  tissue targeting: specifically targeted the colon tissues of the mice with acute colitis
[3]
  retained in the colon: 50%
[4]; 24 h cell viability
  efficacy in doxorubicin-resistant (DoxR) and 5-fluorouracil-resistant (5-FuR) CRC cells: exhibited efficacy against multidrug resistance
[4]; HT29, HCT116, SW480 OxaR, 24 hours
  cell viability of OxaR CRC cells: reduced the viability of OxaR CRC cells
